Experimental data as given in patent publication US20210215708A1 (University of California, published 2021).

Molecular target: BD1-EGFP-HOTag6 (UniProt O60885 44-168)
Assay: cell-based or functional assay

B1: CRBN-EGFP-HOTag3 (other, not shown: large carriers)
chain: MAGEGDQQDAAHNMGNHLPLLPAESEEEDEMEVEDQDSKEAKKPNIINFDTSLPTSHTYLGADMEEFHGRTLHDDDSCQVIPVLPQVMMILIPGQTLPLQLFHPQEVSMVRNLIQKDRTFAVLAYSNVQEREAQFGTTAEIYAYREEQDFGIEIVKVKAIGRQRFKVLELRTQSDGIQQAKVQILPECVLPSTMSAVQLESLNKCQIFPSKPVSREDQCSYKWWQKYQKRKFHCANLTSWPRWLYSLYDAETLMDRIKKQLREWDENLKDDSLPSNPIDFSYRVAACLPIDDVLRIQLLKIGSAIQRLRCELDIMNKCTSLCCKQCQETEITTKNEIFSLSLCGPMAAYVNPHGYVHETLTVYKACNLNLIGRPSTEHSWFPGYAWTVAQCKICASHIGWKFTATKKDMSPQKFWGLTRSALLPTIPDTEDEISPDKVILCLGEIAKSLKEIAKSLKEIAWSLKEIAKSLKG
- brightness of the EGFP droplets after ARV-825: 10 fold
